This note sets out measurements from patent EP4659808A2 (Sanofi, dated 2025).

The chains are these.
T1: human beta-DG extracellular domain (human, UniProt Q14118 654-749, biotinylated in the Example 6 ELISA)
T1 construct: extracellular domain; Expression of the soluble human protein is not described; also called hBeta-DG; hbeta-DG
T1 sequence (looked up): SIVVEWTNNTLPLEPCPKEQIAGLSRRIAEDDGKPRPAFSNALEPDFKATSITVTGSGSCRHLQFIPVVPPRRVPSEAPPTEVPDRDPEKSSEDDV

B1: triAb 3407 (bispecific antibody, human IgG1, kappa)
light 1: EIVLTQSPDFLSVTPKEKVTLTCRASQSISNNLHWYQQKSDQSPKLLIKYASQSISGIPSRFSGSGSGTDFTLTINSVEAEDAATYFCQQSKSWPRTFGGGTKLEIKDKTHTEIVLTQSPDFLSVTPKEKVTLTCRASQSISNNLHWYQQKSDQSPKLLIKYASQSISGIPSRFSGSGSGTDFTLTINSVEAEDAATYFCQQSKSWPRTFGGGTKLEIKDKTHTRTVAAPSVFIFPPSDEQLKSGTASVVCLLNNFYPREAKVQWKVDNALQSGNSQESVTEQDSKDSTYSLSSTLTLSKADYEKHKVYACEVTHQGLSSPVTKSFNRGEC
heavy 1: EVQLVESGGGLVKPGGSLRLSCAASGFTFSSYTMSWVRQAPGKGLEWVASISSSGSNTYYPDSVKGRFTISRDNAKNNLYLQMNSLRAEDTALYYCARFDYGSSLDSWGQGTLLTVSSDKTHTEVQLVESGGGLVKPGGSLRLSCAASGFTFSSYTMSWVRQAPGKGLEWVASISSSGSNTYYPDSVKGRFTISRDNAKNNLYLQMNSLRAEDTALYYCARFDYGSSLDSWGQGTLLTVSSDKTHTASTKGPSVFPLAPSSKSTSGGTAALGCLVKDYFPEPVTVSWNSGALTSGVHTFPAVLQSSGSLSSVVTVPSSSLGTQTYICNVNHKPSNTKVDKKVEPKSCDKTHTCPPCPAPELLGGPSVFLFPPKPKDTLYITREPEVTCVVVDVSHEDPEVKFNWYVDGVEVHNAKTKPREEQYNNASRVVSVLTVLHQDWLNGKEYKCKVSNKALPAPIEKTISKAKGQPREPQVYTLPPCRDELTKNQVSLWCLVKGFYPSDIAVEWESNGQPENNYKTTPPVLDSDGSFFKKLTVDKSRWQQGNVFSCSVMHEALHNHYTQKSLSLSPG
heavy 2: QVQLVQSGAEVVKPGSSVKVSCEASGFTFTDSVITWVRQRPGQGLEWIGEIYPGSGNFYYNEKFQGRVTITADKSTSTAYMELSSLRSEDTAVYFCAMRRSSWGQGTLVTVSSASTKGPSVFPLAPSSKSTSGGTAALGCLVKDYFPEPVTVSWNSGALTSGVHTFPAVLQSSGSLSSVVTVPSSSLGTQTYICNVNHKPSNTKVDKKVEPKSCDKTHTCPPCPAPELLGGPSVFLFPPKPKDTLYITREPEVTCVVVDVSHEDPEVKFNWYVDGVEVHNAKTKPREEQYNNASRVVSVLTVLHQDWLNGKEYKCKVSNKALPAPIEKTISKAKGQPREPQVCTLPPSRDELTKNQVSLSCAVKGFYPSDIAVEWESNGQPENNYKTTPPVLDSDGSFFLVSKLTVDKSRWQQGNVFSCSVMHEALHNRFTQKSLSLSPG
light 2: DVVMTQTPLSLSVTPGQPASISCKSSQTIVHSNSKTYLEWYLQKPGQSPQLLIYKVSSRFSGVPDRFSGSGSGTDFTLKISRVEAEDVGVYYCFQGSHVPLTFGQGTKLEIKRTVAAPSVFIFPPSDEQLKSGTASVVCLLNNFYPREAKVQWKVDNALQSGNSQESVTEQDSKDSTYSLSSTLTLSKADYEKHKVYACEVTHQGLSSPVTKSFNRGEC
notes: Constant regions with knob-in-hole, NNAS, YTE and RF variants
B2: triAb 3423 (bispecific antibody, human IgG1, kappa)
light 1: EIVLTQSPDFLSVTPKEKVTLSCRASQSISNYLHWYQQKSDQSPKLLIKYASQSISGIPSRFSGSGSGTDFTLSINSVEAEDAATYFCQQSKSWPRTFGGGTKLEIKDKTHTEIVLTQSPDFLSVTPKEKVTLTCRASQSISNNLHWYQQKSDQSPKLLIKYASQSISGIPSRFSGSGSGTDFTLTINSVEAEDAATYFCQQSKSWPRTFGGGTKLEIKDKTHTRTVAAPSVFIFPPSDEQLKSGTASVVCLLNNFYPREAKVQWKVDNALQSGNSQESVTEQDSKDSTYSLSSTLTLSKADYEKHKVYACEVTHQGLSSPVTKSFNRGEC
heavy 1: EVQLVESGGGLVKPGGSLRLSCAASGFTFSSYTMSWVRQAPGKGLEWVASISSSGSNTYYPDSVKGRFTISRDNAKNNLYLQMNSLRAEDTALYYCARFDYGSSLDSWGQGTLLTVSSDKTHTEVQLVESGGGLVKPGGSLRLSCAASGFTFSSYTMSWVRQAPGKGLEWVASISSSGSNTYYPDSVKGRFTISRDNAKNNLYLQMNSLRAEDTALYYCARFDYGSSLDSWGQGTLLTVSSDKTHTASTKGPSVFPLAPSSKSTSGGTAALGCLVKDYFPEPVTVSWNSGALTSGVHTFPAVLQSSGSLSSVVTVPSSSLGTQTYICNVNHKPSNTKVDKKVEPKSCDKTHTCPPCPAPELLGGPSVFLFPPKPKDTLYITREPEVTCVVVDVSHEDPEVKFNWYVDGVEVHNAKTKPREEQYNNASRVVSVLTVLHQDWLNGKEYKCKVSNKALPAPIEKTISKAKGQPREPQVYTLPPCRDELTKNQVSLWCLVKGFYPSDIAVEWESNGQPENNYKTTPPVLDSDGSFFKKLTVDKSRWQQGNVFSCSVMHEALHNHYTQKSLSLSPG
heavy 2: QVQLVQSGAEVVKPGSSVKVSCEASGFTFTDSVITWVRQRPGQGLEWIGEIYPGSGNFYYNEKFQGRVTITADKSTSTAYMELSSLRSEDTAVYFCAMRRSSWGQGTLVTVSSASTKGPSVFPLAPSSKSTSGGTAALGCLVKDYFPEPVTVSWNSGALTSGVHTFPAVLQSSGSLSSVVTVPSSSLGTQTYICNVNHKPSNTKVDKKVEPKSCDKTHTCPPCPAPELLGGPSVFLFPPKPKDTLYITREPEVTCVVVDVSHEDPEVKFNWYVDGVEVHNAKTKPREEQYNNASRVVSVLTVLHQDWLNGKEYKCKVSNKALPAPIEKTISKAKGQPREPQVCTLPPSRDELTKNQVSLSCAVKGFYPSDIAVEWESNGQPENNYKTTPPVLDSDGSFFLVSKLTVDKSRWQQGNVFSCSVMHEALHNRFTQKSLSLSPG
light 2: DVVMTQTPLSLSVTPGQPASISCKSSQTIVHSNSKTYLEWYLQKPGQSPQLLIYKVSSRFSGVPDRFSGSGSGTDFTLKISRVEAEDVGVYYCFQGSHVPLTFGQGTKLEIKRTVAAPSVFIFPPSDEQLKSGTASVVCLLNNFYPREAKVQWKVDNALQSGNSQESVTEQDSKDSTYSLSSTLTLSKADYEKHKVYACEVTHQGLSSPVTKSFNRGEC
B3: triAb 3437 (bispecific antibody, human IgG1, kappa)
light 1: EIVLTQSPDFLSVTPKEKVTLTCRASQSIGNNLHWYQQKSDQSPKLLIKYASQSISGIPSRFSGSGSGTDFTLTINSVEAEDAATYFCQQSKSWPRTFGGGTKLEIKDKTHTEIVLTQSPDFLSVTPKEKVTLSCRASQSISNYLHWYQQKSDQSPKLLIKYASQSISGIPSRFSGSGSGTDFTLSINSVEAEDAATYFCQQSKSWPRTFGGGTKLEIKDKTHTRTVAAPSVFIFPPSDEQLKSGTASVVCLLNNFYPREAKVQWKVDNALQSGNSQESVTEQDSKDSTYSLSSTLTLSKADYEKHKVYACEVTHQGLSSPVTKSFNRGEC
heavy 1: EVQLVESGGGLVKPGGSLRLSCAASGFTFSSYTMSWVRQAPGKGLEWVASISSSGSNTYYPDSVKGRFTISRDNAKNNLYLQMNSLRAEDTALYYCARFDYGSSLDSWGQGTLLTVSSDKTHTEVQLVESGGGLVKPGGSLRLSCAASGFTFSSYTMSWVRQAPGKGLEWVASISSSGSNTYYPDSVKGRFTISRDNAKNNLYLQMNSLRAEDTALYYCARFDYGSSLDSWGQGTLLTVSSDKTHTASTKGPSVFPLAPSSKSTSGGTAALGCLVKDYFPEPVTVSWNSGALTSGVHTFPAVLQSSGSLSSVVTVPSSSLGTQTYICNVNHKPSNTKVDKKVEPKSCDKTHTCPPCPAPELLGGPSVFLFPPKPKDTLYITREPEVTCVVVDVSHEDPEVKFNWYVDGVEVHNAKTKPREEQYNNASRVVSVLTVLHQDWLNGKEYKCKVSNKALPAPIEKTISKAKGQPREPQVYTLPPCRDELTKNQVSLWCLVKGFYPSDIAVEWESNGQPENNYKTTPPVLDSDGSFFKKLTVDKSRWQQGNVFSCSVMHEALHNHYTQKSLSLSPG
heavy 2: QVQLVQSGAEVVKPGSSVKVSCEASGFTFTDSVITWVRQRPGQGLEWIGEIYPGSGNFYYNEKFQGRVTITADKSTSTAYMELSSLRSEDTAVYFCAMRRSSWGQGTLVTVSSASTKGPSVFPLAPSSKSTSGGTAALGCLVKDYFPEPVTVSWNSGALTSGVHTFPAVLQSSGSLSSVVTVPSSSLGTQTYICNVNHKPSNTKVDKKVEPKSCDKTHTCPPCPAPELLGGPSVFLFPPKPKDTLYITREPEVTCVVVDVSHEDPEVKFNWYVDGVEVHNAKTKPREEQYNNASRVVSVLTVLHQDWLNGKEYKCKVSNKALPAPIEKTISKAKGQPREPQVCTLPPSRDELTKNQVSLSCAVKGFYPSDIAVEWESNGQPENNYKTTPPVLDSDGSFFLVSKLTVDKSRWQQGNVFSCSVMHEALHNRFTQKSLSLSPG
light 2: DVVMTQTPLSLSVTPGQPASISCKSSQTIVHSNSKTYLEWYLQKPGQSPQLLIYKVSSRFSGVPDRFSGSGSGTDFTLKISRVEAEDVGVYYCFQGSHVPLTFGQGTKLEIKRTVAAPSVFIFPPSDEQLKSGTASVVCLLNNFYPREAKVQWKVDNALQSGNSQESVTEQDSKDSTYSLSSTLTLSKADYEKHKVYACEVTHQGLSSPVTKSFNRGEC

For the experiment, the target named is T1, human beta-DG extracellular domain. Kind of experiment: SPR (Biacore T100), antibody captured on Protein G chip, BDG in flow, 1:1 model. (In general: SPR reads the build-up and loss of mass on a sensor chip optically.)
Usually Kd stands for the free concentration of one partner at which half of the binding sites on the other are occupied at equilibrium, for simple one-to-one binding. High values mean a looser complex, low ones a tighter complex. For orientation: koff means the first-order rate constant of dissociation. The kon is the second-order rate constant of association. Turning to B1, binding was put at a Kd of 2.08 nM, the off-rate constant (koff) came out at 0.00326 s⁻¹ and the kon is 1.57e+06 M⁻¹ s⁻¹.

Turning to B2, the Kd came to 1.6 nM, the dissociation rate constant (koff) was found to be 0.00433 s⁻¹ and the kon is 2.7e+06 M⁻¹ s⁻¹.

The molecule B3 showed a dissociation constant Kd of 1.87 nM, a koff of 0.0045 s⁻¹ and a kon of 2.41e+06 M⁻¹ s⁻¹.
